Reference: patent US20040048243A1, “Methods and compositions for in vitro targeting” (priority 2003, published 2004)

What was measured:
FN (fibronectin) = FN (fibronectin) (Homo sapiens, UniProt P02751); assay: Protein-protein interaction ELISA: rhAngiostatin binding to coated protein
Experimental: (§1) To assess protein-protein interactions, 100 ng/well of protein was coated in triplicate in 96-well plates. The plates were dried at 37° C., blocked with PBS and 3% BSA, and incubated with 10 μg/ml of rhAngiostatin in PBS+1% BSA for three hours at RT. The wells were washed three times with PBS, 3% BSA, 0.01% Tween 20 before incubation with anti-rhAngiostatin antibody (R&D Systems, Inc #AF226) at 1 μg/ml for 1 hour at RT. The wells were then washed three times with PBS, 3% BSA, 0.01% Tween 20 and incubated with […] anti-goat antibody. After washing 3 times with PBS, 0.01% Tween 20 and once with PBS, the wells were developed with p-nitrophenyl phosphate. Binding of alkaline phosphate conjugate was detected colorimetrically at […]. using an ELISA microplate reader.

LN (laminin) = assay: as above
Experimental: as §1

COL IV (collagen IV) = assay: as above
Experimental: as §1

VN (vitronectin) = biological target: T1, VN (vitronectin) (Homo sapiens, UniProt P04004); assay: as above
T1 sequence (P04004 20-478): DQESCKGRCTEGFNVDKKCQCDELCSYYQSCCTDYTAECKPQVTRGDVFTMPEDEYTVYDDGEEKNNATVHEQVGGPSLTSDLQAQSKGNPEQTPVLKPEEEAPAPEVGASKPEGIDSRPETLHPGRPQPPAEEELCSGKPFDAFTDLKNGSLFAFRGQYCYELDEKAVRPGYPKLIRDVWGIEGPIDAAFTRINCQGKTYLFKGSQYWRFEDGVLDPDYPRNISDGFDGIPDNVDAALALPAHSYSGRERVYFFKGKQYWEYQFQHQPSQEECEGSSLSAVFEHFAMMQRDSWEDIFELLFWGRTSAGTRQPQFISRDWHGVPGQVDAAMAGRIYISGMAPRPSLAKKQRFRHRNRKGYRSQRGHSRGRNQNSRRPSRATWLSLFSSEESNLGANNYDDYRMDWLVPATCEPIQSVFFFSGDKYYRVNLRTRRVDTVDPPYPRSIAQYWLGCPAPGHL
Experimental: as §1

[1] = biological target: T2, HGF (hepatocyte growth factor) (Homo sapiens, UniProt P14210); assay: as above
T2 construct: purchased Calbiochem, San Diego, Calif; 375228
Experimental: as §1

CD13 (Aminopeptidase N) = biological target: T3, CD13 (Aminopeptidase N) (Sus scrofa, UniProt P15145); assay: as above
T3 construct: purchased Sigma, St Louis, Mo; L-9776
T3 sequence (P15145 1-963): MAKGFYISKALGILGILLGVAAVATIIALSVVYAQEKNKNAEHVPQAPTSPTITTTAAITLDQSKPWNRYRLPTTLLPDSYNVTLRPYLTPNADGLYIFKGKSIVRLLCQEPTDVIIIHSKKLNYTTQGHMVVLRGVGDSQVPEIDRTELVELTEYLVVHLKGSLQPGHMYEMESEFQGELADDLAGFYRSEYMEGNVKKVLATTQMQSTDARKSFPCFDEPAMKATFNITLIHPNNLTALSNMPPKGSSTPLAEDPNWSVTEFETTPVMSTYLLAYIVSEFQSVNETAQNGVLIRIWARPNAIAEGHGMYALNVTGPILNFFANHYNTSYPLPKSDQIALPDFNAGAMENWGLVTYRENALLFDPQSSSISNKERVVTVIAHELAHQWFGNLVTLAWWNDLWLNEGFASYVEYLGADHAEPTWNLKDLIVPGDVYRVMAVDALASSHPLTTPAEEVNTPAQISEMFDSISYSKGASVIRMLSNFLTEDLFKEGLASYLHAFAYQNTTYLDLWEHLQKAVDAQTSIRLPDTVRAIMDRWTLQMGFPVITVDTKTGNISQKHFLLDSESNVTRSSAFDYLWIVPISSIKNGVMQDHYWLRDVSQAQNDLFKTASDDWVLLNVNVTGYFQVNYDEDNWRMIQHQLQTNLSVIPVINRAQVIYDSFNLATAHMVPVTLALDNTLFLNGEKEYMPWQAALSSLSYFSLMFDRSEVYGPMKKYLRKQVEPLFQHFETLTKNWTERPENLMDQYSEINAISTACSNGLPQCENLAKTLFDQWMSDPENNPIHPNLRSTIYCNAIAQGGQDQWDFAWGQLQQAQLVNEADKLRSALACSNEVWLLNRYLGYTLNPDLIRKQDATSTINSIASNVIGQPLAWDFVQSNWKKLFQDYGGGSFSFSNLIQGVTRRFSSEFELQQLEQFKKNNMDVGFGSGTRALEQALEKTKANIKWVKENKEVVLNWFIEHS
Experimental: as §1

Thrombospondin 1 (TSP-1) = biological target: T4, Thrombospondin 1 (TSP-1) (Homo sapiens, UniProt P07996); assay: as above; conditions: TSP-1, positive control
T4 construct: purchased Calbiochem, San Diego, Calif; 605225
Experimental: as §1

[2] = system: angiostatin receptor in tissue sections; assay: Angiostatin staining of tissue sections of metastatic human bone marrow; assay type: binding; conditions: 100 μg/ml rh-angiostatin, anti-angiostatin antibody detection
Experimental: Angiostatin was incubated with tissue sections of metastitic human bone marrow. After washing, the tissue sections were developed with an anti-angiostatin Ab, followed by the corresponding secondary Ab conjugated to peroxidase. […] The staining was specific since only this structure and not other cells were stained.
Anti-human Angiostatin were purchased (R&D Systems: AF226). rhAngiostatin was produced by EntreMed, Inc. (Rockville, Md.). Surgical specimens of human metastases (Bouin-fixed 4-6 h, paraffin-embedded sections, 5-6 μm thick) were adsorbed on polylysine-coated slides. Tissue slides were incubated with 100 μg/ml of rh-angiostatin. The slides were washed 3 times and incubated with anti-angiostatin antibody. The slides were washed again 3 times and bound antibodies were detected using an anti-goat peroxidase-conjugate antibody.

T4 sequence (P07996 19-1170): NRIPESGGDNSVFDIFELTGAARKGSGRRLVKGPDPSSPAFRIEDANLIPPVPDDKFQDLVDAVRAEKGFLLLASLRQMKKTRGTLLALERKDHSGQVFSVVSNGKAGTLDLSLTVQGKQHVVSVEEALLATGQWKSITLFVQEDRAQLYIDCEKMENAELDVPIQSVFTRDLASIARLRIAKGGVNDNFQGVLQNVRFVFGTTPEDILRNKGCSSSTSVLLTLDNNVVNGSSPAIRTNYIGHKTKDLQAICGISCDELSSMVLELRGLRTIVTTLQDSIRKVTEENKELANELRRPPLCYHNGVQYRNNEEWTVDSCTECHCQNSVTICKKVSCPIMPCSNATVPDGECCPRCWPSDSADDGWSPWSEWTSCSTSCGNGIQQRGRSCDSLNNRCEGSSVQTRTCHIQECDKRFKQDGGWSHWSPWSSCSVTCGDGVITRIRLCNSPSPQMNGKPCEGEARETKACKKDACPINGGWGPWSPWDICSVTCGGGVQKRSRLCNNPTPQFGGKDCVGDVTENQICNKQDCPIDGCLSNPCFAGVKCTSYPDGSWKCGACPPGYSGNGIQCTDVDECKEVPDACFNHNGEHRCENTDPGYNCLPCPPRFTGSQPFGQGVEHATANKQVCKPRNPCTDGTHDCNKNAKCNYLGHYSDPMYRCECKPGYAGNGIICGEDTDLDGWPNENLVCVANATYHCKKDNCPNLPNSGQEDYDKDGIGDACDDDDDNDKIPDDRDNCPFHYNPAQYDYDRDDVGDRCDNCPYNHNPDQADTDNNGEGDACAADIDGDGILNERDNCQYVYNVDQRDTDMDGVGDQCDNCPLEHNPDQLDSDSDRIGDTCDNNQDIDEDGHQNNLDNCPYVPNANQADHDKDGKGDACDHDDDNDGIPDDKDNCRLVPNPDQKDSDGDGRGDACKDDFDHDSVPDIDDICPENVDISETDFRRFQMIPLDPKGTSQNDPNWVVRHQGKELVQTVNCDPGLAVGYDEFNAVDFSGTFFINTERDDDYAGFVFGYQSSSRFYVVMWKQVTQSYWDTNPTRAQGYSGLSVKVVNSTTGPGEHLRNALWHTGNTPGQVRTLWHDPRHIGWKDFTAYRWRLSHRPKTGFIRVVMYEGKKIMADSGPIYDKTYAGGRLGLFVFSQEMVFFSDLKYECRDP
FN (fibronectin), sequence (P02751 32-2477, species assumed): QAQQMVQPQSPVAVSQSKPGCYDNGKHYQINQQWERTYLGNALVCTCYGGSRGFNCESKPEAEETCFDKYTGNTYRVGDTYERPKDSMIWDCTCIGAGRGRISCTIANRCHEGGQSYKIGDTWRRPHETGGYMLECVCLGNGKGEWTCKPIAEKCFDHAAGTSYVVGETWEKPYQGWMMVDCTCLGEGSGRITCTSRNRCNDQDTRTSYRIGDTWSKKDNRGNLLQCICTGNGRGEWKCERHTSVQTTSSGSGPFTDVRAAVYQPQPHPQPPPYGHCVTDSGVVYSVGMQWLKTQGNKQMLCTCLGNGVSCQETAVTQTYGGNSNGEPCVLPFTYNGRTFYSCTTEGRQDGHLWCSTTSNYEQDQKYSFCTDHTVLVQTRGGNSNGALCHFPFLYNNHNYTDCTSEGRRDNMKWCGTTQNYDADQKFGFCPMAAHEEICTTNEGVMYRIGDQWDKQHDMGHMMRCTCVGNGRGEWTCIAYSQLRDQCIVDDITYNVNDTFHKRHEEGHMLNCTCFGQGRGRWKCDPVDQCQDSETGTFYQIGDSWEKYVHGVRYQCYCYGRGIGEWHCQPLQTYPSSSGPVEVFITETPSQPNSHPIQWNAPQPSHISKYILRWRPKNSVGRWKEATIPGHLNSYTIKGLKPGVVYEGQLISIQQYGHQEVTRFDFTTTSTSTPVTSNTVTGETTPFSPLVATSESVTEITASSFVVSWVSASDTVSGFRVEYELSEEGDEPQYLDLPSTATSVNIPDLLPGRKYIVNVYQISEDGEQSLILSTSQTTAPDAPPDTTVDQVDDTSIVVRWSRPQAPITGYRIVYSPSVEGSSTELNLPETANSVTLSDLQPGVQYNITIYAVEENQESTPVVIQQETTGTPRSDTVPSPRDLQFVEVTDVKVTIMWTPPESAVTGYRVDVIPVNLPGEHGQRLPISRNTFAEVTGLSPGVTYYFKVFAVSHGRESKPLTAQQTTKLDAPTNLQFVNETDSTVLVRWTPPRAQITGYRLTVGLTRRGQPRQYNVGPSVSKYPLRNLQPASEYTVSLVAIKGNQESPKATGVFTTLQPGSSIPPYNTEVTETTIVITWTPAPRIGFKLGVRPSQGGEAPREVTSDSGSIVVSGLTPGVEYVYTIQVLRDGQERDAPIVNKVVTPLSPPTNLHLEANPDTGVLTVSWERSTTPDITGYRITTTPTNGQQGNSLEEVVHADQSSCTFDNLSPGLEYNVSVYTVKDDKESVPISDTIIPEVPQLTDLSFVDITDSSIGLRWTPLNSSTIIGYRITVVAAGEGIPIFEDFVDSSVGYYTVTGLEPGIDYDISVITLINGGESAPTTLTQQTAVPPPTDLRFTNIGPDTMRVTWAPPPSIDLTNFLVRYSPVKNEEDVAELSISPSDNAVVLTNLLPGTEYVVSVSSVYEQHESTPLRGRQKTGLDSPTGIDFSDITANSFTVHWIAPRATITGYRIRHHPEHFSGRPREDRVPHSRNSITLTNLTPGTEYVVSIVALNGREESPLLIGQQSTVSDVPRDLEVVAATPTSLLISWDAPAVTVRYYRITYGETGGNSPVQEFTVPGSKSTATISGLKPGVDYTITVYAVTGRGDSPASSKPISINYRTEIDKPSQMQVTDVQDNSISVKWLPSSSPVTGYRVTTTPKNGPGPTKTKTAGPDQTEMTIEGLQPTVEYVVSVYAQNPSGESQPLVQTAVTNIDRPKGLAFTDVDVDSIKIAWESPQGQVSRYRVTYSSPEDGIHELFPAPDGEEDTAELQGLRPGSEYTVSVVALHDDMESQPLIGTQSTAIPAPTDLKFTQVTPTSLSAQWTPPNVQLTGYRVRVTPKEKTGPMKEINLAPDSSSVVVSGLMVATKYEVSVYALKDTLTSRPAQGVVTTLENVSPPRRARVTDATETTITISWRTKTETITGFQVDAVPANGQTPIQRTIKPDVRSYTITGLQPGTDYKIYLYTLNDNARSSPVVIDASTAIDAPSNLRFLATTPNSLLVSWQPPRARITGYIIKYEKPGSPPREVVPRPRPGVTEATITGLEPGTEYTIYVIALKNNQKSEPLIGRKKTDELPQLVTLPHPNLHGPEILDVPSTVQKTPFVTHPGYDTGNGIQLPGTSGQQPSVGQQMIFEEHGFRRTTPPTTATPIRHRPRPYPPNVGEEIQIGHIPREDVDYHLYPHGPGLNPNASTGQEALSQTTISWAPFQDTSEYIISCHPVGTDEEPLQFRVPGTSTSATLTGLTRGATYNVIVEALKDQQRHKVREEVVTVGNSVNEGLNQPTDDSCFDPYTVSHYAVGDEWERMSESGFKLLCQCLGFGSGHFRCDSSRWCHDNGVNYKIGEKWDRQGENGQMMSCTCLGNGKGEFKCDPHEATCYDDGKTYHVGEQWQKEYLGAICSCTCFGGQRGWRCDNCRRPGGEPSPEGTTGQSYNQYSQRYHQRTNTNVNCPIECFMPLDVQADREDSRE
T2 sequence (P14210 32-728): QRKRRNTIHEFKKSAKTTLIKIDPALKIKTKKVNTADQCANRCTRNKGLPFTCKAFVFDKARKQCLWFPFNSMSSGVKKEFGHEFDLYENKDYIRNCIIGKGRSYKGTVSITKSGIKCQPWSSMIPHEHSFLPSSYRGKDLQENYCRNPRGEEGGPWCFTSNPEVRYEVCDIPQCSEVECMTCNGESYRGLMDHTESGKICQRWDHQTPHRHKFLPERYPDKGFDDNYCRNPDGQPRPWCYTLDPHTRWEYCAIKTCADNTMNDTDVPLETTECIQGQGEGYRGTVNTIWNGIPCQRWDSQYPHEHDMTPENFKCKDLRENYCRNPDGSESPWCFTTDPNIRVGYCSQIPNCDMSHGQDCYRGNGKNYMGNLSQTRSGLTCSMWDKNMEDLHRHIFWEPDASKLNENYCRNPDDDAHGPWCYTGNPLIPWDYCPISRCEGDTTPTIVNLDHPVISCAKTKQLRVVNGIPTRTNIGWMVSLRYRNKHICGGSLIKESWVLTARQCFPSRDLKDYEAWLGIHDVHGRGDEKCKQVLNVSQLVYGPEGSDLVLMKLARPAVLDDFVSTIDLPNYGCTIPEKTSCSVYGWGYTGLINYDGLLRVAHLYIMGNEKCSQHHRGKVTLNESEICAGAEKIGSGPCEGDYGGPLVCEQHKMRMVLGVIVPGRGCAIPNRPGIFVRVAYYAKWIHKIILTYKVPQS

B1: angiostatin: rh-Angiostatin produced by EntreMed, Inc. (protein)
chain: VYLSECKTGNGKNYRGTMSKTKNGITCQKWSSTSPHRPRFSPATHPSEGLEENYCRNPDNDPQGPWCYTTDPEKRYDYCDILECEEECMHCSGENYDGKISKTMSGLECQAWDSQSPHAHGYIPSKFPNKNLKKNYCRNPDRELRPWCFTTDPNKRWELCDIPRCTTPPPSSGPTYQCLKGTGENYRGNVAVTVSGHTCQHWSAQTPHTHNRTPENFPCKNLDENYCRNPDGKRAPWCHTTNSQVRWEYCKIPSCDSSPV
binding of angiostatin to coated protein (FN (fibronectin)): not | binding of angiostatin to coated protein (LN (laminin)): not | binding of angiostatin to coated protein (COL IV (collagen IV)): not | binding of angiostatin to coated protein (VN (vitronectin)): not | binding of angiostatin to coated protein [1]: binds | binding of angiostatin to coated protein (CD13 (Aminopeptidase N)): binds | binding of angiostatin to coated protein (Thrombospondin 1 (TSP-1)): binds | staining of tissue sections [2]: vessel-like
